# Data as given in US11459387B2, “Anti-CD147 antibody” (DAIICHI SANKYO COMPANY, LIMITED, priority 2017, dated 2022).
# B1: LN22R8: mouse anti-human CD147 monoclonal antibody, Mouse IgG3; light chain variable region SEQ ID NO: 8, heavy chain variable region SEQ ID NO: 10 (antibody, listed as Mus musculus, V domains shown)
# VH: QIQLVQSGPELKKPGETVKISCKASGYTFTNYGMNWVKQAPGKGLKWMGWINTYTGEPTYADDFKGRFAFSLETSASTAYLQINNLKNEDTATYFCARGGYGNYGAGAMDYWGQGTSVTVSS
# VL: DIQMTQSPSSLSASLGERVSLTCRASLEISGFLSWLQQKPDGTIKRLIYAASILDSGVPKRFSGSRSGSDYSLTISSLESEDFADYYCLQYASYPWTFGGGTKLEIKR
# Key:
# [1] = test system: human liver cell line HepG2; experiment: HepG2 liver cancer model in NOD-scid mice; format: in vivo; settings: qD1x9 po, n=5; for Average tumor volume: NOD-scid mice
# Description: 5×10^6 cells of the human liver cell line HepG2 were suspended in PBS containing 50% Matrigel (Corning Inc., Cat. 354234), and the suspension was inoculated subcutaneously into the axilla of 4 week-old female NOD-scid mice (NOD. CB17-Prkdc/J, purchased from CHARLES RIVER LABORATORIES JAPAN, INC). […] As a control drug, sorafenib (Nexavar tablets 200 mg, Bayer AG), which is a therapeutic agent for liver cancer, was dissolved in a PEG-35 castor oil (Cremophor EL, NACALAI TESQUE, INC., Cat. 09727-14) ethanol solvent according to the reference (Chang et. al., Cancer Chem. Thera. Pharm., 2007) attached to Nexavar tablets, and the solution was orally administered to cancer-bearing mice at 30 mg/kg or 90 mg/kg 9, 10, 11, 12, 13, 16, 17, and 18 days after the inoculation (n=5). The major axis and the minor axis of the inoculated tumor were measured twice a week using an electronic digital caliper (available from MITUTOYO CORPORATION) to calculate the tumor volume by the following formula. Tumor volume (mm^3)=½×minor axis (mm)×minor axis (mm)×major axis (mm)
# [2] = test system: human peripheral blood mononuclear cells; experiment: Cytokine release assay using human peripheral blood; format: cell-based; settings: 6 donors
# Source text: In some antibodies such as OKT3 and TGN1412, administration of the therapeutic antibodies causes an increase in cytokines in the blood by activating immune cells, thereby causing serious cytokine release syndrome (Gaston, R., Kidney International, 1991, 141-148; Suntharalingam, G., et al., N. Engl. J. Med. 2006, 1018-1028). It has been reported that some CD147 antibodies act on immune cells, having an action of increasing production of interferon gamma or interleukin-4 (Hu, J., et al., J. Cell. Mol. Med., 2010, 2132-2143). The toxicity of antibody drugs due to cytokine release syndrome can be predicted by a cytokine release assay using peripheral blood (Vessillier, S. et al., J. Immunolol. Methods, 2015, 43-52).
# [3] = test system: human pancreatic line BxPC-3; experiment: SMAD4-negative BxPC-3 pancreatic cancer-bearing model in BALB/c-nu mice; format: in vivo; settings: antibody 10 mg/kg ip 8, 15 and 22 days after the inoculation; BALB/c-nu mice
# Source text: The transcription factor, SMAD4, is known as one of the molecules important for activation of SMAD signaling (Zang, et al., Current Biology, 270-276, 1997). It is known that SMAD signaling is partially impaired due to genetic defects of SMAD4 in some pancreatic cancers (Hahn, et al., Science, 350-353, 1996). […] 2.5×10^6 cells of human pancreatic line BxPC-3 (ATCC, Cat. CRL-1687) were suspended in PBS containing […] (Corning Inc., Cat. 354234), and the suspension was inoculated subcutaneously into the axilla of 6 week-old female BALB/c-nu mouse (CAnN. Cg-Foxn1nu/CrlCrlj, purchased from CHARLES RIVER LABORATORIES JAPAN, INC). […] As a control drug, gemcitabine (Eli Lilly Japan K.K., Gemzar®) that is a therapeutic agent for pancreatic cancer was administered to mice bearing tumor via the tail vein at 200 mg/kg 8, 15, 22 days after the inoculation (n=5). The major axis and the minor axis of the inoculated tumor were measured twice a week using an electronic digital caliper (available from MITUTOYO CORPORATION) to calculate the tumor volume by the following formula. Tumor volume (mm^3)=½×minor axis (mm)×minor axis (mm)×major axis (mm)
# [4] = test system: human pancreatic line MIA PaCa-2; experiment: CDC activity with rabbit complement, CellTiter-Glo; format: cell-based; settings: antibody 10 μg/ml; rabbit complement 7.5%; 3 hours
# Description: Complement-dependent cytotoxicity (CDC) activity can be evaluated by measuring cell death caused when complement contained in blood, an antibody and target cells are brought into contact. The CDC activity of the anti-human CD147 antibody of the present invention is measured as follows. The complement-dependent cytotoxicity activity (CDC activity) of the anti-human CD147 antibody is evaluated using human pancreatic cell line MIA PaCa-2 as target cells. Commercially available rabbit complement (Low Tox-M Rabbit Complement, […] LABORATORIES LIMITED, Cat. CL3051) is used as the complement. […] Target cells are treated with the antibody to be evaluated and the negative control antibody at concentrations of 0, 0.1, 1 or 10 μg/ml for 1 hour at 4° C., the rabbit complement is added in such a manner that the final concentration is 7.5%, the resultant mixture is heated at 37° C. in the presence of 5% CO2 for 3 hours, and then intracellular ATP contained in living cells is measured using the CellTiter-Glo Lumimescent Cell Viability Assay (Promega, Cat. G7572). Luminescent signals obtained using the CellTiter-Glo Lumimescent Cell Viability Assay are quantitatively determined using an EnVision 2104 Multilabel Reader (Perkin Elmer). The measurement is performed three times and the average value and the standard deviation are calculated. […]
# [5] = test system: human pancreatic line PANC-1; experiment: Antibody screening by in-vivo antitumor efficacy, PANC-1 xenograft in NOD-scid mice
# Description: 1×10^7 cells of human pancreatic line PANC-1 were suspended in PBS, and the suspension was inoculated subcutaneously into the axilla of NOD-scid mice (CHARLES RIVER LABORATORIES JAPAN, INC., NOD. CB17-Prkdc/J). […] The major axis and the minor axis of the inoculated tumor were measured twice a week using an electronic digital caliper (available from MITUTOYO CORPORATION) to calculate the tumor volume by the following formula. Tumor volume (mm^3)=½×minor axis (mm)×minor axis (mm)×major axis (mm)
# [6] = test system: human pancreatic line MIA PaCa-2; experiment: ADCC activity, 51Cr release, human PBMC effector cells; format: cell-based; settings: antibody 0.5 or 5 μg/ml; MIA PaCa-2 target cells
# Description: Antibody-dependent cellular cytotoxicity (ADCC) activity can be measured by a ^51Cr release assay method, which measures cell death caused when immune cells having effector activity, an antibody and ^51Cr-labeled target cells are brought into contact. The ADCC activity of the anti-human CD147 antibody of the present invention is measured as follows. Regarding the ADCC activity of the anti-human CD147 antibody, human peripheral blood mononuclear cells (PBMC) are used as effector cells, and a CD147-positive human cancer cell line (for example, pancreatic cancer cell line MIA PaCa-2) is used as ADCC target cells. Cancer cells labeled with a radioisotope, ^51Cr, and the antibody to be evaluated are treated at a concentration of 0.5 or 5 μg/ml at 4° C. for 30 minutes, PBMC separated from human peripheral blood is added at 20 times the proportion of cancer cells, and then cells are cultured for 4 hours at 37° C. in the presence of 5% CO2. […] The measured value of ^51Cr released from ^51Cr-labeled cancer cells treated with Triton-100 is designated as a “Maximum release value” and the measured value of ^51Cr released from ^51Cr-labeled cancer cells treated with antibody in the absence of PBMC is designated as a “Spontaneous release value”. With these values, % Specific release is calculated from the following formula. […]
molecule,measurement,setting,value
"CNC(=O)c1cc(Oc2ccc(NC(=O)Nc3ccc(Cl)c(C(F)(F)F)c3)cc2)ccn1 [Sorafenib, sorafenib, reference compound]",Number of examples of complete tumor regression,[1]; 30 mg/kg,0/5
same,tumor growth inhibition rate,[1]; 30 mg/kg,18%
same,Average tumor volume,[1]; 30 mg/kg,1425 mm^3
same,Number of examples of complete tumor regression,[1]; 90 mg/kg,0/5
same,tumor growth inhibition rate,[1]; 90 mg/kg,28%
same,Average tumor volume,[1]; 90 mg/kg,1252 mm^3
anti-human CD3 antibody (OKT3): comparative antibody in the cytokine release assay (BioLegend Cat. No317326) [reference compound],acceleration of cell growth in human peripheral blood mononuclear cells,[2],acceleration of cell growth
same,"cytokine release (TNFα, INF-γ, IL-2, IL-6, IL-8, IL-10, MIP-1α)",[2]; human peripheral blood,acceleration of cytokine release
B1,sensitivity of BxPC-3 tumor (in words),[3],resistant
same,"living cells (CDC activity, luminescence of non-treated cells = 100%)",[4],41.1%
same,tumor growth inhibition rate,"[5]; 10 mg/kg ip administration group, 48th day after the inoculation (final measurement date), NOD-scid mice",50%
same,in vivo anti-tumor effect,"[5]; antitumor efficacy of Example 1)-7 (PANC-1 xenograft, 10 mg/kg) as listed in Table 3",50%
same,ADCC activity (in words),[6],no ADCC activity
